Test results: patent US20240288446

Molecular target: T1, Human Glu-plasminogen
T1 chain: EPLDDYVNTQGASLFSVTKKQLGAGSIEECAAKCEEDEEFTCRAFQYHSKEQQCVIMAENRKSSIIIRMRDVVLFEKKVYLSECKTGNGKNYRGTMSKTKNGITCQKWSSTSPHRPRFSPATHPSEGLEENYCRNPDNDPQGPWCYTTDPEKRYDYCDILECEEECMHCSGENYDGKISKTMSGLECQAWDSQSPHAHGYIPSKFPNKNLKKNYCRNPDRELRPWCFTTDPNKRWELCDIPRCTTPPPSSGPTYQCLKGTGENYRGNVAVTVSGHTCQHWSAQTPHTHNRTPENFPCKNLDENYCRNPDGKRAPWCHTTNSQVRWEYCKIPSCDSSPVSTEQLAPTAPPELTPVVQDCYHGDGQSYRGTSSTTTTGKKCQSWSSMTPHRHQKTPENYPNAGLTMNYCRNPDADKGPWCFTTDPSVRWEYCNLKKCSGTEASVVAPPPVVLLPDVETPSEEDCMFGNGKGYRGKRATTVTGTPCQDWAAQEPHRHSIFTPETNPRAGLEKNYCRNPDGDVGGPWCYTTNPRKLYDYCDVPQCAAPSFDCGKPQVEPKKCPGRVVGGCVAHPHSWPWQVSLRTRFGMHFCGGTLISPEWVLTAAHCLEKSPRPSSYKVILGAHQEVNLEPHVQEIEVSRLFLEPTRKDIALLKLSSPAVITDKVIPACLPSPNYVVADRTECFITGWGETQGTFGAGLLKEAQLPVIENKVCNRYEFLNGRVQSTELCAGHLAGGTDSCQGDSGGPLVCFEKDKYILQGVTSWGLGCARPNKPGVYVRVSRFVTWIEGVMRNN

B1: Human tissue plasminogen activator (protein)
chain: SYQVICRDEKTQMIYQQHQSWLRPVLRSNRVEYCWCNSGRAQCHSVPVKSCSEPRCFNGGTCQQALYFSDFVCQCPEGFAGKCCEIDTRATCYEDQGISYRGTWSTAESGAECTNWNSSALAQKPYSGRRPDAIRLGLGNHNYCRNPDRDSKPWCYVFKAGKYSSEFCSTPACSEGNSDCYFGNGSAYRGTHSLTESGASCLPWNSMILIGKVYTAQNPSAQALGLGKHNYCRNPDGDAKPWCHVLKNRRLTWEYCDVPSCSTCGLRQYSQPQFRIKGGLFADIASHPWQAAIFAKHRRSPGERFLCGGILISSCWILSAAHCFQERFPPHHLTVILGRTYRVVPGEEEQKFEVEKYIVHKEFDDDTYDNDIALLQLKSDSSRCAQESSVVRTVCLPPADLQLPDWTECELSGYGKHEALSPFYSERLKEAHVRLYPSSRCTSQHLLNRTVTDNMLCAGDTRSGGPQANLHDACQGDSGGPLVCLNDGRMTLVGIISWGLGCGQKDVPGVYTKVTNYLDWIRDNMRP
- conversion of plasminogen into plasmin (plasmin-selective chromogenic substrate): The time- and concentration-dependent conversion of plasminogen into plasmin at the fibrin-NETs lattice was reduced as compared to fibrin alone
